Patent publication US12194082B2, “Compositions and methods for treatment of homocystinuria” (THE REGENTS OF THE UNIVERSITY OF COLORADO, priority 2016, dated 2025)

Key:
[1] = tested on: I278T −/− homozygous mice; experiment: Facial alopecia in I278T mice; type: in vivo, mouse; conditions: 3 times per week, start W24-W28, up to about 1 year
Experimental: 3 W old mice not showing any signs of facial alopecia were split into 2 groups. The first group (n=3 males) was injected with 7.5 mg/kg three times per week with 200MA0B PEG-htCBS C15S for a period of 6 weeks. Physical look was recorded before the experiment and monitored weekly, then bi-weekly after the 6 W injection regimen. Metabolite levels were checked before the experiment and 24 hours after the last injection, i.e. after the 6 W injection regimen.
The second group (n=3; 2 males, 1 female) was continuously injected with 7.5 mg/kg of 200MA0B PEG-htCBS C15S administered subcutaneously from 3 W of age until 41 weeks of age. Weight was initially monitored weekly. Physical look was recorded before the experiment and was monitored weekly or bi-weekly after the initial 6 W injection regimen. Metabolite levels were checked before the experiment and 24 hours after the last injection of initial 6 W injection regiment and then followed weekly or bi-weekly.
The I278T mice, which were at least 120D (W17) old and had visible, fully developed facial alopecia, were split into 2 groups. […] Metabolite levels were determined prior to the treatment initiation and measured during the study 24 hours after the injection, and weight and physical look were initially monitored weekly, and later bi-weekly.

[2] = tested on: Hcy, Cth, Cys; experiment: Plasma metabolites in KO mice of the DEXA study; type: in vivo
Experimental: In 20NHS PEG-htCBS C15S-treated KO mice, the plasma levels of Hcy, Cth, and Cys were measured biweekly over the course of the study and are shown in FIG. 16F. […] The level of Cys (top line) normalized with the treatment from less than 100 μM at day […] to about 200 μM at day 45 and sustained over the course of the study. The level of Cth (bottom line) oscillated around 50 μM throughout the duration of the study.
Plasma metabolites were determined using the same mice/groups as described above. The end-point levels of metabolites Hcy, Cth, Cys, and Met were determined 24 hours after the last injection to the 20NHS PEG-htCBS C15S-treated KO mice (right bar for each metabolite) and compared with untreated healthy +/− (left bar) and affected −/− KO mice (middle bar), as shown in FIG. 16G. Table 20 provides the P-values used to determine significance for the differences in metabolite levels in the treated group compared to the two control groups.

[3] = tested on: I278T mice; experiment: DEXA bone mineralization and body composition in I278T mice; type: in vivo, mouse; conditions: 7.5 mg/kg SC 3x/week from 6 to 13 months of age
Experimental: A PIXImusII DEXA scanner (GE Lunar Medical Systems) specifically designed for scanning small animals such as mice was used for DEXA analysis. This machine enabled quick and efficient determination of the body composition (lean, fat mass, and bone density) of a mouse before terminal tissue extraction procedures. Mice were fasted for 4 hours prior to the DEXA measurement to remove food from the gastro-intestinal tract. Mice were then anesthetized using IP bolus injection of 60 mg/kg ketamine and 15 mg/kg xylazine and placed on a tray in the DEXA machine. After the measurement was done (3˜5 minutes), the mice were removed from the DEXA machine and used in terminal procedures, such as tissue extractions.
The bone mineral density (BMD) and bone mineral content (BMC) were analyzed by DEXA for three groups of I278T mice: +/− healthy heterozygous controls (n=10M+11F), −/− affected homozygous I278T controls (n=6M+8F), and 20NHS PEG-htCBS C15S-treated I278T mice (n=6M+6F). The 20NHS PEG-htCBS C15S (C15S/ME-200GS)-treated I278T mice were administered 7.5 mg/kg subcutaneously (SC) 3 times per week from the age of 6 months up to the age of 13 months. FIG. 17A, FIG. 17B, FIG. 17C, FIG. 17D, and FIG. 17E are graphs comparing BMD (g/cm^2), BMC (g), total mass (g), lean mass (g), and fat content (%), respectively, among the three groups of mice. […]

[4] = Radiometric CBS activity assay of monkey plasma samples; type: in vivo, cynomolgus monkey
Source text: Tables 12-14 below show the comparison of C15S/ME-200GS specific activity determined by LC/MS/MS using D,L-homocysteine M+4 as a substrate and by radiometric assay using L-[…] as a substrate. The enzyme's specific activity is presented in mU/μl. The “n.d.” stands for “not determined”.

With “20NHS PEG-htCBS C15S: htCBS C15S PEGylated with ME-200GS PEG (20 kDa linear NHS ester-activated PEG)” the “animals responding (reversal of fully developed facial alopecia)” value [1] was 4 out of 4, the “plasma Hcy” value ([2]; during treatment, from about 180 μM) was “about 90 μM” and the “plasma Cys” value ([2]; during treatment, from less than 100 μM) was “about 200 μM”. The “plasma Cth” value ([2]; throughout the study) was “around 50 μM”, the “bone mineralization (BMD) vs healthy heterozygous controls” value [3] was “indistinguishable” and the “osteoporosis and body composition (DEXA)” value [3] was “prevented profound osteoporosis and improved body composition”. For the same substance, the “specific activity in plasma, Radiometric assay” value (“specific activity in plasma” for short) ([4]; single IV 2 mg/kg, 0.083 h) was 95.741 mU/μl, the “specific activity in plasma” value ([4]; single IV 2 mg/kg, 0.167 h) was 90.049 mU/μl and the “specific activity in plasma” value ([4]; single IV 2 mg/kg, 0.25 h) was 88.891 mU/μl. For the same substance, the “specific activity in plasma” value ([4]; single IV 2 mg/kg, 0.5 h) was 85.342 mU/μl, the “specific activity in plasma” value ([4]; single IV 2 mg/kg, 1 h) was 80.992 mU/μl and the “specific activity in plasma” value ([4]; single IV 2 mg/kg, 2 h) was 78.984 mU/μl. For the same substance, the “specific activity in plasma” value ([4]; single IV 2 mg/kg, 4 h) was 77.809 mU/μl, the “specific activity in plasma” value ([4]; single IV 2 mg/kg, 8 h) was 70.357 mU/μl and the “specific activity in plasma” value ([4]; single IV 2 mg/kg, 24 h) was 55.865 mU/μl. For the same substance, the “specific activity in plasma” value ([4]; single IV 2 mg/kg, 72 h) was 31.601 mU/μl, the “specific activity in plasma” value ([4]; single IV 2 mg/kg, 120 h) was 18.908 mU/μl and the “specific activity in plasma” value ([4]; single IV 2 mg/kg, 192 h) was 9.182 mU/μl. The “specific activity in plasma” value ([4]; single SC 2 mg/kg, 1 h) was 2.842 mU/μl, the “specific activity in plasma” value ([4]; single SC 2 mg/kg, 2 h) was 5.801 mU/μl and the “specific activity in plasma” value ([4]; single SC 2 mg/kg, 4 h) was 11.207 mU/μl. For the same substance, the “specific activity in plasma” value ([4]; single SC 2 mg/kg, 8 h) was 22.164 mU/μl, the “specific activity in plasma” value ([4]; single SC 2 mg/kg, 24 h) was 40.293 mU/μl and the “specific activity in plasma” value ([4]; single SC 2 mg/kg, 48 h) was 36.658 mU/μl. For the same substance, the “specific activity in plasma” value ([4]; single SC 2 mg/kg, 72 h) was 30.670 mU/μl, the “specific activity in plasma” value ([4]; single SC 2 mg/kg, 96 h) was 23.536 mU/μl and the “specific activity in plasma” value ([4]; single SC 2 mg/kg, 120 h) was 18.608 mU/μl. For the same substance, the “specific activity in plasma” value ([4]; single SC 2 mg/kg, 192 h) was 9.496 mU/μl, the “specific activity in plasma” value ([4]; single SC 2 mg/kg, 240 h) was 5.963 mU/μl and the “specific activity in plasma” value ([4]; single SC 2 mg/kg, 336 h) was 2.441 mU/μl. The “specific activity in plasma” value ([4]; single SC 6 mg/kg, 1 h) was 3.739 mU/μl, the “specific activity in plasma” value ([4]; single SC 6 mg/kg, 2 h) was 9.180 mU/μl and the “specific activity in plasma” value ([4]; single SC 6 mg/kg, 4 h) was 22.263 mU/μl. For the same substance, the “specific activity in plasma” value ([4]; single SC 6 mg/kg, 8 h) was 50.194 mU/μl, the “specific activity in plasma” value ([4]; single SC 6 mg/kg, 24 h) was 111.081 mU/μl and the “specific activity in plasma” value ([4]; single SC 6 mg/kg, 48 h) was 109.292 mU/μl. For the same substance, the “specific activity in plasma” value ([4]; single SC 6 mg/kg, 72 h) was 95.722 mU/μl, the “specific activity in plasma” value ([4]; single SC 6 mg/kg, 96 h) was 73.072 mU/μl and the “specific activity in plasma” value ([4]; single SC 6 mg/kg, 120 h) was 56.427 mU/μl. The “specific activity in plasma” value ([4]; single SC 6 mg/kg, 192 h) was 31.513 mU/μl, the “specific activity in plasma” value ([4]; single SC 6 mg/kg, 240 h) was 19.203 mU/μl and the “specific activity in plasma” value ([4]; single SC 6 mg/kg, 336 h) was 5.807 mU/μl.
